Data reported in US20130196320A1, “METHOD FOR IMPROVING CLEAVAGE OF DNA BY ENDONUCLEASE SENSITIVE TO METHYLATION” (CELLECTIS, priority 2010, published 2013).
Like-named read-outs stand apart in the source and are kept apart here.

B1: I-CreI: wild-type I-CreI meganuclease (… homing endonuclease), SEQ ID NO: 1, recombinant Cterm His-tag (protein, listed as Chlamydomonas reinhardtii)
chain: MNTKYNKEFLLYLAGFVDGDGSIIAQIKPNQSYKFKHQLSLTFQVTQKTQRRWFLDKLVDEIGVGYVRDRGSVSDYILSEIKPLHNFLTQLQPFLKLKQKQANLVLKIIEQLPSAKESPDKFLEVCTWVDQIAALNDSKTRKTTSETVRAVLDSLSEKKKSSP
modifications: C-terminal His-tag

Experiments:
[1] = tested on: CAPNS1 target in human CAPNS1 gene, 293H cells; test: Meganuclease-induced mutagenesis assay at CAPNS1 recognition site; format: cell-based; settings: Empty vector, 1 μM 5-aza-2′-deoxycytidine, CAPNS1 locus
Description: The human 293H cells (ATCC) were plated at a density of 1.2×10^6 cells per 10 cm dish in complete medium (DMEM supplemented with 2 mM L-glutamine, penicillin (100 IU/ml), streptomycin (100 μg/ml), amphotericin B (Fongizone: 0.25 μg/ml, Invitrogen-Life Science) and 10% FBS). The cells were pre-treated with 5-aza-deoxycytidine at 0.2 μM or 1 μM, 48 hours before transfection and the treatment was maintained 48 hours post-transfection. The medium was changed every day. The cells were transfected with 3 μg of DNA plasmids encoding meganuclease for RAG or 2.5 μg of each monomer CAPNS1 using Lipofectamine 2000 transfection reagent (Invitrogen) according to the manufacturer's protocol.
The efficiency of the meganuclease to promote mutagenesis at its endogenous recognition site was evaluated by sequencing the DNA surrounding the meganuclease cleavage site. Two days post-transfection, genomic DNA was extracted. 200 ng of genomic DNA were used to amplify (PCR amplification) the endogenous locus surrounding the meganuclease cleavage site. PCR amplification is performed to obtain a fragment flanked by specific adaptor sequences [adaptor A: 5′-[…]-NNNN-3′(SEQ ID NO: 46) and adaptor B, 5′-[…]-3′ (SEQ ID NO: 47)] provided by the company offering sequencing service (GATC Biotech AG, Germany) on the 454 sequencing system (454 Life Sciences). The primers sequences used for PCR amplification were:
RAG_R1: 5′-[…]-[…]-3′ (SEQ ID NO: 58) and CAPNS1_J3: 5′-[…]-NNNN-[…] (SEQ ID NO: 59) and CAPNS1_R3: 5′-[…]-[…]-3′ (SEQ ID NO: 60). Sequences specific to the locus are underlined. The sequence NNNN in primer F1 is a Barcode sequence (Tag) needed to link the sequence with a PCR product. The percentage of PCR fragments carrying insertion or deletion at the meganuclease cleavage site is related to the mutagenesis induced by the meganuclease through NHEJ pathway in a cell population, and therefore correlates with the meganuclease activity at its endogenous recognition site. 5000 to 10000 sequences were analyzed per conditions.

C1221 DNA target = test: In vitro cleavage assay with C1221 duplex, increasing meganuclease concentration; format: biochemical
Description: FIG. 2: In vitro cleavage of unmethylated or methylated C1221 by I-CreI. A constant amount of C1221 (50 nM) was incubated with increasing concentrations of I-CreI (0 to 2 μM) in reaction buffer (10 mM Tris-HCl, 150 mM NaCl, 10 mM MgCl2, pH8) for an hour at 37° C. The reaction was stopped and the remaining uncleaved C1221 was quantify and plotted as function of I-CreI concentration.
FIG. 3: In vitro cleavage of unmethylated or methylated C1221 by I-CreI D75N. 50 nM C1221 containing either 0, 1, 2 or 3 methylated CG was incubated with increasing concentrations of I-CreI D75N (0 to 2 μM) in reaction buffer (10 mM Tris-HCl, 150 mM NaCl, 10 mM MgCl2, pH8) for an hour at 37° C. The reaction was stopped and cleaved and uncleaved C1221 (top and bottom panel respectively) were quantify and plotted as function of I-CreI D75N concentration.
To investigate the influence of C1221 methylation on the nuclease activity of I-CreI, an in vitro cleavage assay with either unmethylated or fully methylated C1221 duplex (SEQ ID NOs: 4-5 and 12-13 respectively) was performed. A constant amount of C1221 duplex (50 nM) was incubated with increasing concentration of I-CreI (0 to 2 μM) in a total volume of 25 μL of reaction buffer (10 mM Tris-HCl, 150 mM NaCl, 10 mM MgCl2, pH8). Cleavage reaction was allowed to proceed 1 hour at 37° C. and then stopped by addition of 5 μL of 6× stop buffer (45% glycerol, 95 mM EDTA, 1.5% (w/v) SDS, 1.5 mg/mL proteinase K and 0.048% (w/v) bromophenol blue) followed by an hour incubation at 37° C. Cleaved and uncleaved DNA products were separated by PAGE using a TGX Any kD precast gel (Bio-Rad), stained with SYBR Green and then quantified using Quantity One software (Bio-Rad).
To investigate the influence of C1221 methylation on the nuclease activity of I-CreI D75N, in vitro cleavage assay with C1221 duplex containing either 0, 1, 2 or 3 methylated CG (SEQ ID NOs: 4-5, 6-7, 8-9, 10-11 respectively) was performed, according to the procedure described for I-CreI wild type.

| Molecule | mutagenesis, PCR fragments carrying a mutation [1] | mutagenesis, PCR fragments carrying a mutation ([1]; listed as 5-aza-2′-deoxycytidine) | EC50 (C1221 DNA target; fully methylated C1221, 1 hour at 37° C., read-out: C50 (concentration of I-CreI needed to cleave 50% of C1221)) [nM] | I-CreI concentration at which C1221 is totally cleaved (C1221 DNA target; unmethylated C1221) [nM] | EC50 (C1221 DNA target; unmethylated C1221, 1 hour at 37° C., read-out: C50 (concentration of meganuclease needed to cleave 50% of C1221)) [nM] |
| --- | --- | --- | --- | --- | --- |
| Nc1ncn([C@H]2C[C@H](O)[C@@H](CO)O2)c(=O)n1 [5-aza-2′deoxycytidine, reference compound] | 0.22%±0.25 | 0.22% ± 0.25 |  |  |  |
| B1 |  |  | > 2000 | 250 | 100 |
